The record followed here is the RNAGym collection of RNA variant scans (doi:10.7554/elife.80360).

B1: CPEB3 Ribozyme (parent)
chain: GGGGGCCACAGCAGAAGCGUUCACGUCGCGGCCCCUGUCAGAUUCUGGUGAAUCUGCGAAUUCUGCUGU

The variants in this data set derive from B1. Briefly: self-cleavage, relative activity (ratio to wild type); higher = more cleavage; co-transcriptional.
In the case of GGGGGCCACAGCAGAAGCGUUCACGCCGCGGCCCCUGUCAGAUUCUGGUGAAUCUGCGAAUUCUGAUGU [U26C C66A], the self-cleavage is 0.585.
Take GGGGGCCACAGCAGAAGCGUUCACGCCGCGGCCCCUGUCAGAUUCUGGUGAAUCUGCGAAUUCUGGUGU [U26C C66G]: the self-cleavage amounted to 0.692.
Consider GGGGGCCACAGCAGAAGCGUUCACGCCGCGGCCCCUGUCAGAUUCUCGUGAAUCUGCGAAUUCUGCUGU [U26C G47C], for which the self-cleavage stood at 0.978.
Turning to GGGGGCCACAGCAGAAGCGUUCACGCCGCGGCCCCUGUCAGAUUCUAGUGAAUCUGCGAAUUCUGCUGU [U26C G47A], the self-cleavage turned out to be 0.957.
In the case of GGGGGCCACAGCAGAAGCGUUCACGCCGCGGCCCCUGUCAGAUUCUUGUGAAUCUGCGAAUUCUGCUGU [U26C G47U], the self-cleavage was found to be 1.01.
As for GGGGGCCACAGCAGAAGCGUUCACGACGCGGCCCCUGUCAGAUUCUGGUGAAUCUGCGAAUUCGGCUGU [U26A U64G], the self-cleavage was 0.719.
Next, GGGGGCCACAGCAGAAGCGUUCACGACGCGGCCCCUGUCAGAUUCUGGUGAAUCUGCGAAUUCAGCUGU [U26A U64A]: 0.628.
With GGGGGCCACAGCAGAAGCGUUCACGCCGCGGGCCCUGUCAGAUUCUGGUGAAUCUGCGAAUUCUGCUGU [U26C C32G], the self-cleavage came out at 0.365.
Consider GGGGGCCACAGCAGAAGCGUUCACGCCGCGGCCCCUGUCAGAUUCUGGUGACUCUGCGAAUUCUGCUGU [U26C A52C], for which the self-cleavage is 0.995.
On to GGGGGCCACAGCAGAAGCGUUCACGCCGCGGCCCCUGUCAGAUUCUGGUGAUUCUGCGAAUUCUGCUGU [U26C A52U], for which the self-cleavage is 0.989.
As to GGGGGCCACAGCAGAAGCGUUCACGCCGCGGCCCCUGUCAGAUUCUGGUGAGUCUGCGAAUUCUGCUGU [U26C A52G], the self-cleavage came to 1.01.
As for GGGGGCCACAGCAGAAGCGUUCACGCCGAGGCCCCUGUCAGAUUCUGGUGAAUCUGCGAAUUCUGCUGU [U26C C29A], the self-cleavage was 0.414.
On to GGGGGCCACAGCAGAAGCGUUCACGCCGGGGCCCCUGUCAGAUUCUGGUGAAUCUGCGAAUUCUGCUGU [U26C C29G], for which the self-cleavage was found to be 0.345.
Next, GGGGGCCACAGCAGAAGCGUUCACGCCGUGGCCCCUGUCAGAUUCUGGUGAAUCUGCGAAUUCUGCUGU [U26C C29U]: 0.135; GGGGGCCACAGCAGAAGCGUUCACGCCGCGGCCCCUGUCAGUUUCUGGUGAAUCUGCGAAUUCUGCUGU [U26C A42U]: 0.964; GGGGGCCACAGCAGAAGCGUUCACGCCGCGGCCCCUGUCAGCUUCUGGUGAAUCUGCGAAUUCUGCUGU [U26C A42C]: 1.01.
In the case of GGGGGCCACAGCAGAAGCGUUCACGCCGCUGCCCCUGUCAGAUUCUGGUGAAUCUGCGAAUUCUGCUGU [U26C G30U], the self-cleavage was found to be 0.304.
In the case of GGGGGCCACAGCAGAAGCGUUCACGCCGCAGCCCCUGUCAGAUUCUGGUGAAUCUGCGAAUUCUGCUGU [U26C G30A], the self-cleavage is 0.749.
Consider GGGGGCCACAGCAGAAGCGUUCACGCCGCGGCCCCUGUCAGAUUUUGGUGAAUCUGCGAAUUCUGCUGU [U26C C45U], for which the self-cleavage worked out at 0.953.
Take GGGGGCCACAGCAGAAGCGUUCACGCCGCGGCCCGUGUCAGAUUCUGGUGAAUCUGCGAAUUCUGCUGU [U26C C35G]: the self-cleavage came to 0.375.
In the case of GGGGGCCACAGCAGAAGCGUUCACGCCGCGGCCCUUGUCAGAUUCUGGUGAAUCUGCGAAUUCUGCUGU [U26C C35U], the self-cleavage amounted to 0.964.
In the case of GGGGGCCACAGCAGAAGCGUUCACGCCGCGGCCCCUUUCAGAUUCUGGUGAAUCUGCGAAUUCUGCUGU [U26C G37U], the self-cleavage was 0.205.
In the case of GGGGGCCACAGCAGAAGCGUUCACGCCGCGGCCCCUAUCAGAUUCUGGUGAAUCUGCGAAUUCUGCUGU [U26C G37A] it was 0.317; in that of GGGGGCCACAGCAGAAGCGUUCACGCCGCGGCCGCUGUCAGAUUCUGGUGAAUCUGCGAAUUCUGCUGU [U26C C34G], 0.492; in that of GGGGGCCACAGCAGAAGCGUUCACGCCGCGGCCCCUGUCAGAUUCUGGUGUAUCUGCGAAUUCUGCUGU [U26C A51U], 0.982.
In the case of GGGGGCCACAGCAGAAGCGUUCACGCCGCGGCCCCUGUCAGAUUCUGGUGCAUCUGCGAAUUCUGCUGU [U26C A51C], the self-cleavage was 0.972.
For the variant GGGGGCCACAGCAGAAGCGUUCACGCCGCGGCCCCUGUCAGAUUCUGGUGGAUCUGCGAAUUCUGCUGU [U26C A51G], the self-cleavage is 0.928.
As for GGGGGCCACAGCAGAAGCGUUCACGCCGCGGCCCCUGUCAAAUUCUGGUGAAUCUGCGAAUUCUGCUGU [U26C G41A], the self-cleavage was found to be 0.673.
On to GGGGGCCACAGCAGAAGCGUUCACGCCGCGGCCCCUGUCACAUUCUGGUGAAUCUGCGAAUUCUGCUGU [U26C G41C], for which the self-cleavage is 0.708.
In the case of GGGGGCCACAGCAGAAGCGUUCACGCCGCGGCCCCUGUCAUAUUCUGGUGAAUCUGCGAAUUCUGCUGU [U26C G41U] it was 0.8.
In the case of GGGGGCCACAGCAGAAGCGUUCACGCCGCGGCCCCAGUCAGAUUCUGGUGAAUCUGCGAAUUCUGCUGU [U26C U36A] it was 0.153; in that of GGGGGCCACAGCAGAAGCGUUCACGCCGCGGCCCCCGUCAGAUUCUGGUGAAUCUGCGAAUUCUGCUGU [U26C U36C], 0.88.
For the variant GGGGGCCACAGCAGAAGCGUUCACGCCGCGGCCCCUGUCAGAUUCUGGUGAAUCUGCGAAUUUUGCUGU [U26C C63U], the self-cleavage came to 1.
On to GGGGGCCACAGCAGAAGCGUUCACGCCGCGGCCCCUGUCAGAUUCUGGUGAAUCUGCGAAUUGUGCUGU [U26C C63G], for which the self-cleavage came to 0.599.
Next, GGGGGCCACAGCAGAAGCGUUCACGCCGCGGCCCCUGUCAGAUUCUGGUGAAUCUGCGAAUUAUGCUGU [U26C C63A]: 0.614.
Take GGGGGCCACAGCAGAAGCGUUCACGCCGCGGCCCCUGUCAGAUUCUGCUGAAUCUGCGAAUUCUGCUGU [U26C G48C]: the self-cleavage was 0.988.
Next, GGGGGCCACAGCAGAAGCGUUCACGCCGCGGCCCCUGUCAGAUUCUGAUGAAUCUGCGAAUUCUGCUGU [U26C G48A]: 0.982.
On to GGGGGCCACAGCAGAAGCGUUCACGCCGCGGCCCCUGUCUGAUUCUGGUGAAUCUGCGAAUUCUGCUGU [U26C A40U], for which the self-cleavage is 0.733.
For GGGGGCCACAGCAGAAGCGUUCACGCCGCGGCCCCUGUCCGAUUCUGGUGAAUCUGCGAAUUCUGCUGU [U26C A40C], the self-cleavage was determined as 0.455.
